The source of these data is patent US20080235828A1 (University of Manitoba, priority 2004, published 2008).

In one series the test system is McLeod barley embryos. Description: Germination of bombarded mature embryos, McLeod line. Type of series: in vivo. The conditions noted are these: in the presence of ABAP1. On the procedure: (§1) To determine whether or not ABAP1 affects seed germination, mature embryo from two different barley lines (McLeod and Harrington) were bombarded with sense and anti-sense orientation of ABAP1. The embryos were subjected to different ABA treatments and the germination rate, plumule length, radical length and root numbers per embryo were measured for up to four days after bombardment.

For another series, the system named is α-amylase activity. Description: α-amylase activity in bombarded barley aleurones. Particulars: em and ABAP1 bombarded aleurones. In kind it is cell-based.
The test system of series [1] is Harrington barley embryos. The experiment in a line: Germination and growth of bombarded mature embryos, Harrington line. Type of series: in vivo. The protocol:
as §1

For the next series, the system named is em promoter. The experiment in a line: em promoter driven GUS expression in bombarded barley aleurone layers. Type of series: cell-based. The conditions noted are these: em plus ABAP1 bombardment, without ABA treatment. The text has this: The studies examined the effector and reporter constructs, at a 1:1 ratio, introduced to barley aleurone layers by gold particle bombardment. The bombardment consisted of two trials: the first trial was a bombardment of em promoter only; the second trial was a bombardment of em promoters treated with ABAP1.

Experimental for α-amylase activity: A similar experiment was conducted with α-amylase activity to confirm if ABAP1 is involved in another signal transduction pathway. α-amylase activity was measured after ABA, PBI51 and GA were added to the em and ADAPT bombarded barley aleurones.

B1: ABAP1: barley ABA-binding protein, 472 amino acids, SEQ ID NO: 10; expressed from effector construct in bombardment tests (protein)
chain: MNSLSGTYIMRGCEQPLIVRFADPKRPRPGESRGGPAFGGPGVSSRSDAALVIRPTANLDEQIGRHMPPDTWRPSSPSSMAPHQFNNFGSDNSMGLMGGPVTSAADNVAFRPQLFHGNGSLSSQTAVPASSHMGINPSLSQGHHLGGPQIPPLQKPTGLQQNFPVQLQNAQQGQLHASQSLGPGSFGQNIPTMQLPGQLPVSQPLTQQNASACALQAPSAVQSNPMQSVPGQQQLPSNLTPQMLQQPVQQMLSQAPQLLLQQQQAAMQSSYQSSQQTIFQLQQQLQLMQQQQHQQQPNLNQQPHTQVPKQQGQPVQSNAPGAPAAMMTTNINAIPQQVNSPAVSLTCNWTEHTSPEGFKYYYNSITRESKWEKPEEYVLYEQQQQQQDHQKLILLQQHQQKLVAQQLQSPPQAQTIPSMQSMQHHPQSQQGHNQMQMKQQDLNYNQLQPTGTIDPSRIQQGIQAAQERSWKS
modifications: Hordeum, vulgare subsp. vulgare
With B1, the germination rate result with McLeod barley embryos was “significantly lower”. Besides, in the series on α-amylase activity, the α-amylase activity entry is listed as “reduction”. Moreover, the germination rates result in series [1] is recorded as “did not seem to be affected”. Further, the “plumule and radical growth” value in series [1] (in the presence of ABAP1) is recorded as “significantly retarded”. Also, the “GUS activity versus em alone” value in the series with em promoter is given as “twice fold”.
